The values that follow are results of earlier work, collected in publication PMC5896957.

In this series the target is exon junction complex (Homo sapiens) (UniProt P38919).
UniProt P38919, sequence (P38919 2-411, chain 1 of 3): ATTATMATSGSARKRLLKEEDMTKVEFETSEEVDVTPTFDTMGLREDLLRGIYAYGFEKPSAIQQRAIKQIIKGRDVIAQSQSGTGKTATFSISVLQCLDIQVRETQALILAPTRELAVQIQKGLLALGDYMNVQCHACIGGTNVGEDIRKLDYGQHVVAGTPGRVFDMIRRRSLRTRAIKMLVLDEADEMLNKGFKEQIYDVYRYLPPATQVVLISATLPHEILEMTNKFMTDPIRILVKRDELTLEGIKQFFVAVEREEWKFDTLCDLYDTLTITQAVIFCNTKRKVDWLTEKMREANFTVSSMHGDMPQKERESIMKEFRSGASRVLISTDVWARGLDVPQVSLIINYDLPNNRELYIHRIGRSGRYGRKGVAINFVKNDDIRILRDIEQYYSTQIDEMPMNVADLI
UniProt P38919, sequence (B1ARP8 whole entry, chain 2 of 3, further chain): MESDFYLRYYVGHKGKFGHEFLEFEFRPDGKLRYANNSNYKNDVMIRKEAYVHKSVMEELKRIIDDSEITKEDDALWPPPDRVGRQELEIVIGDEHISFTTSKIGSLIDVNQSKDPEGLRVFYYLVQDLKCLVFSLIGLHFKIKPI
UniProt P38919, sequence (O15234 whole entry, chain 3 of 3, further chain): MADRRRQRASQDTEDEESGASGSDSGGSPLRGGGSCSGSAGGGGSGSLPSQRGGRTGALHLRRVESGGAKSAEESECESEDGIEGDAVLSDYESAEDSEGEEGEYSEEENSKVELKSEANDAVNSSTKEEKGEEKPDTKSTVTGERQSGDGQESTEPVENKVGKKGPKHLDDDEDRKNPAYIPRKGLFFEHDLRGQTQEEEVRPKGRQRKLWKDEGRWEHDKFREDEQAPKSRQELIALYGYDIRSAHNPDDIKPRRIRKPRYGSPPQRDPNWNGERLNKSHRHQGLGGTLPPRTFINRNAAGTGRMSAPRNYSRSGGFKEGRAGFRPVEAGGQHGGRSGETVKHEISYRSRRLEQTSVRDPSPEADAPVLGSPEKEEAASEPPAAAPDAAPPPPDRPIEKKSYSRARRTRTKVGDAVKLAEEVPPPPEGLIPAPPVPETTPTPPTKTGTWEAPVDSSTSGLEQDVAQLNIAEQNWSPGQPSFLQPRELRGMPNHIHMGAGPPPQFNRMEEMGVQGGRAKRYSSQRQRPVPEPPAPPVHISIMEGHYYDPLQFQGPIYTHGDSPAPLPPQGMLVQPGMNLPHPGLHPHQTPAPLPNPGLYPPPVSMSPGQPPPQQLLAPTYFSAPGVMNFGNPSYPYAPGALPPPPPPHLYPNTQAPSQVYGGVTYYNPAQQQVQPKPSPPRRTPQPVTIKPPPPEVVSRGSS

Consider UPF3B peptide (from UniProt Q9BZI7), for which the dissociation constant (Kd) is 10 µM.
